Consider one molecule from patent publication US20140249052A1 (University of Washington, published 2014).

The target of the assay is T1, streptavidin (from Streptomyces avidinii, 50677, Sigma-Aldrich) (Streptomyces avidinii, UniProt P22629 37-163, limits assumed).
T1 construct: Commercial protein used as received
Description: graphene FET sensor, Langmuir fit of response against concentration; mixed monolayer (25% bio-GrBP5, 75% SS-GrBP5) washed before SA was added, BSA background. The method, then:
A 20 μl drop of water was placed on the sensor and the resistance was allowed to equilibrate. The device was maintained in a hydration chamber at 100% humidity to prevent evaporation. Analyte was added to the static drop on the sensor in the appropriate concentrations, so that the total volume of the drop never exceeded 35μl. Data was collected from two distinct devices and each experiment was reproduced at least once. See supporting information for additional data.
By combining the anti-fouling properties of SS-GrBP5 with the biotinylated probe peptide, we created a sensor capable of selective detection of streptavidin in a bovine serum albumin solution. A mixed peptide monolayer consisting of 25% bio-GrBP5 and 75% SS-GrBP5 was formed in a single step from a solution with an overall concentration of 10 μg/ml. […] Guided by the results in FIG. 21, we introduced 5 μg/ml BSA to the sensor and detected no binding (FIG. 22C). We then introduced sequentially increasing concentrations of SA to the sensor, while maintaining the levels of BSA, and were able to reliably detect streptavidin at 100 ng/ml, although some signal was present at even lower concentrations (FIG. 22C). […] The overall stability of the bio-GrBP5 appears to have been improved by co-assembly with SS-GrBP5, displaying very high coverage and density. […]

T1 sequence (P22629 37-163 limits assumed): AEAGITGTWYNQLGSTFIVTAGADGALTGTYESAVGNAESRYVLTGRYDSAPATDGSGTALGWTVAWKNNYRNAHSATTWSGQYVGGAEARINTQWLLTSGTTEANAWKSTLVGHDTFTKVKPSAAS

B1: Bio-GrBP5 (biotin-graphite binding peptide fusion, Bio-IMVTESSDYSSY) (peptide)
peptide: IMVTESSDYSSY
HELM: PEPTIDE1{[O=C1N[C@H]2[C@H](CS[C@H]2CCCCC(=O)[*:2])N1].I.M.V.T.E.S.S.D.Y.S.S.Y}$$$$V2.0
SMILES: CC[C@H](C)[C@H](NC(=O)CCCC[C@@H]1SC[C@@H]2NC(=O)N[C@@H]21)C(=O)N[C@@H](CCSC)C(=O)N[C@H](C(=O)N[C@H](C(=O)N[C@@H](CCC(=O)O)C(=O)N[C@@H](CO)C(=O)N[C@@H](CO)C(=O)N[C@@H](CC(=O)O)C(=O)N[C@@H](Cc1ccc(O)cc1)C(=O)N[C@@H](CO)C(=O)N[C@@H](CO)C(=O)N[C@@H](Cc1ccc(O)cc1)C(=O)O)[C@@H](C)O)C(C)C
notes: Synthetic 12-mer with N-terminal biotin; In the assays it was self-assembled on graphite (nanowires or monolayer) or on a graphene FET sensor; also called biotinilated peptide; bio-GrBP5 peptide nanowires
For B1, the dissociation constant Kd is ~1.5 nM.
